Results as given in patent publication US20250011363A1, “OPTIMIZED SHORTENED PEPTIDE THAT BINDS TO ACETYLCHOLINE RECEPTOR, AND USE THEREOF” (SKINMED CO., LTD., priority 2021, published 2025).

Target: acetylcholine receptor (Homo sapiens, UniProt P02708)
Assay: SPR binding affinity (RU) of optimized 5mer/6mer/7mer peptides, Examples 6-7
Conditions: SPR, Resonance Units; peptides tested at 10 μM; 6mer-1 Bottom sequence (Table 11)
Procedure, shortened: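 600 peptides per series (5mer, 6mer-1, 6mer-2), made from high- or low-frequency amino acid combinations, are screened by SPR at 10 μM; binding is recorded in RU.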

Chain of acetylcholine receptor (P02708 21-457): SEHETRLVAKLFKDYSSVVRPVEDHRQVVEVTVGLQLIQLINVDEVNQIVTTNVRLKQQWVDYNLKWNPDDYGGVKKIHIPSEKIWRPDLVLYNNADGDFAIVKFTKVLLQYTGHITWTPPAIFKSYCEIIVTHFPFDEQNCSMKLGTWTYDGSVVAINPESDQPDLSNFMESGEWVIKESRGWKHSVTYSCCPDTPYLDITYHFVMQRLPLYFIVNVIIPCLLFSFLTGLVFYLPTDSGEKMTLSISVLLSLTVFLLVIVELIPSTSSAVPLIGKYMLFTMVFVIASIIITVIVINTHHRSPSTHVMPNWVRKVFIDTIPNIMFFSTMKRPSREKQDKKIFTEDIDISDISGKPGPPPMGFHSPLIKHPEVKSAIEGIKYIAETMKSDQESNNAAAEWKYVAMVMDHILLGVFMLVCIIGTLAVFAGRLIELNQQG

Going from 6mer-1-769 (RKMPVK) to 6mer-1-770 (RKTNAR), the Binding affinity rises from 14 Ru to 29 Ru.

First: 6mer-1-771 (KKMDIK)
Second: 6mer-1-772 (KRNCAK)
The Binding affinity of the first is higher: 17 Ru for the first, 12 Ru for the second.

Going from 6mer-1-773 (KRTEIR) to 6mer-1-774 (KKEMER), the Binding affinity falls from 29 Ru to 21 Ru.

First: 6mer-1-775 (KKYPWR)
Second: 6mer-1-776 (KKTSIK)
The Binding affinity of the first is lower: 12 Ru for the first, 13 Ru for the second.

Compared with 6mer-1-777 (RRHNHR), 6mer-1-778 (RRDDFR) is higher in Binding affinity: 16 Ru for the first, 28 Ru for the second.

First: 6mer-1-779 (RRPDAR)
Second: 6mer-1-780 (KRKCWR)
The Binding affinity of the first is higher: 30 Ru for the first, 24 Ru for the second.

Going from 6mer-1-781 (RRHWDK) to 6mer-1-782 (KKNAWK), the Binding affinity rises from 16 Ru to 30 Ru.

Compared with 6mer-1-783 (KKNEFK), 6mer-1-784 (KKFTPK) is higher in Binding affinity: 29 Ru for the first, 33 Ru for the second.

Going from 6mer-1-785 (KKTCER) to 6mer-1-786 (KRIKEK), the Binding affinity rises from 19 Ru to 26 Ru.

Compared with 6mer-1-787 (KKESIK), 6mer-1-788 (RKIPKK) is higher in Binding affinity: 16 Ru for the first, 22 Ru for the second.

Going from 6mer-1-789 (KRMMPK) to 6mer-1-790 (KKPNPK), the Binding affinity falls from 19 Ru to 12 Ru.

Going from 6mer-1-791 (RKPDDK) to 6mer-1-792 (KRKDKK), the Binding affinity rises from 13 Ru to 30 Ru.

Going from 6mer-1-793 (KKTPNR) to 6mer-1-794 (RKYEPK), the Binding affinity falls from 31 Ru to 11 Ru.

Compared with 6mer-1-795 (KKCHMR), 6mer-1-796 (RRHAFK) is higher in Binding affinity: 12 Ru for the first, 28 Ru for the second.

In the case of 6mer-1-797 (RRAWNK), the Binding affinity is reported as 22 Ru.

Same assay, conditions: SPR, peptides tested at 10 μM; 6mer-1 Bottom sequence (Table 11)

Compared with 6mer-1-798 (RRDCFR), 6mer-1-799 (RRKKKR) is higher in Binding affinity: 18 Ru for the first, 30 Ru for the second.

First: 6mer-1-800 (RREHIR)
Second: 6mer-1-801 (KKCAVK)
The Binding affinity of the first is lower: 15 Ru for the first, 18 Ru for the second.

Going from 6mer-1-802 (RKYHGR) to 6mer-1-803 (RKMKHK), the Binding affinity falls from 32 Ru to 31 Ru.

First: 6mer-1-804 (KRDPFR)
Second: 6mer-1-805 (KRDTMK)
The Binding affinity of the first is higher: 31 Ru for the first, 24 Ru for the second.

Going from 6mer-1-806 (RKKTIR) to 6mer-1-807 (RRDKNR), the Binding affinity rises from 12 Ru to 13 Ru.

Compared with 6mer-1-808 (RRFEKK), 6mer-1-809 (KKKSNR) is lower in Binding affinity: 24 Ru for the first, 12 Ru for the second.

Going from 6mer-1-810 (RKCNAR) to 6mer-1-811 (KRHCHK), the Binding affinity rises from 12 Ru to 16 Ru.

Compared with 6mer-1-812 (RKDHMK), 6mer-1-813 (RREDFK) is lower in Binding affinity: 26 Ru for the first, 15 Ru for the second.

Compared with 6mer-1-814 (KKCNAK), 6mer-1-815 (RRFEMR) is higher in Binding affinity: 15 Ru for the first, 23 Ru for the second.

First: 6mer-1-816 (RKIDFK)
Second: 6mer-1-817 (RRIMKR)
The Binding affinity of the first is lower: 14 Ru for the first, 16 Ru for the second.

Compared with 6mer-1-818 (RKIKAR), 6mer-1-819 (KRMHAK) is higher in Binding affinity: 14 Ru for the first, 17 Ru for the second.

First: 6mer-1-820 (KRNDGK)
Second: 6mer-1-821 (RRTTNR)
The Binding affinity of the first is lower: 12 Ru for the first, 22 Ru for the second.

Going from 6mer-1-822 (KREPIK) to 6mer-1-823 (KRHTGK), the Binding affinity falls from 17 Ru to 12 Ru.

First: 6mer-1-824 (KKMNIK)
Second: 6mer-1-825 (RKEKWK)
The Binding affinity of the first is lower: 12 Ru for the first, 30 Ru for the second.

Compared with 6mer-1-826 (KKAHMR), 6mer-1-827 (RKKKFR) is lower in Binding affinity: 31 Ru for the first, 30 Ru for the second.

Compared with 6mer-1-828 (RRPNMK), 6mer-1-829 (RRIHKK) is lower in Binding affinity: 26 Ru for the first, 25 Ru for the second.

Going from 6mer-1-830 (KKTTMK) to 6mer-1-831 (KKNPWK), the Binding affinity falls from 33 Ru to 15 Ru.

Going from 6mer-1-832 (RKYWGK) to 6mer-1-833 (RRYKNR), the Binding affinity rises from 12 Ru to 19 Ru.

Going from 6mer-1-834 (KRNTIR) to 6mer-1-835 (KRTADK), the Binding affinity rises from 17 Ru to 26 Ru.

First: 6mer-1-836 (RRCMIK)
Second: 6mer-1-837 (KRDHAK)
The Binding affinity of the first is higher: 22 Ru for the first, 19 Ru for the second.

Going from 6mer-1-838 (KRNTWK) to 6mer-1-839 (KRNWAK), the Binding affinity rises from 17 Ru to 29 Ru.

Compared with 6mer-1-840 (RKICNK), 6mer-1-841 (KKDAPR) is higher in Binding affinity: 12 Ru for the first, 30 Ru for the second.

Going from 6mer-1-842 (RRFANK) to 6mer-1-843 (KKKTIK), the Binding affinity rises from 11 Ru to 28 Ru.

Compared with 6mer-1-844 (KKPMNR), 6mer-1-845 (KKIDKK) is lower in Binding affinity: 28 Ru for the first, 23 Ru for the second.

Going from 6mer-1-846 (RKDAEK) to 6mer-1-847 (KKYNHK), the Binding affinity falls from 28 Ru to 20 Ru.

First: 6mer-1-848 (RKTMFK)
Second: 6mer-1-849 (KKFNWK)
The Binding affinity of the first is lower: 19 Ru for the first, 21 Ru for the second.

Going from 6mer-1-850 (RRNPEK) to 6mer-1-851 (RRYMEK), the Binding affinity rises from 29 Ru to 30 Ru.

First: 6mer-1-852 (KRASVK)
Second: 6mer-1-853 (KRCNGR)
The Binding affinity of the first is lower: 19 Ru for the first, 30 Ru for the second.

Going from 6mer-1-854 (KKEAVR) to 6mer-1-855 (RKCDVR), the Binding affinity falls from 16 Ru to 15 Ru.

First: 6mer-1-856 (KRMWFK)
Second: 6mer-1-857 (KRPAFK)
The Binding affinity of the first is higher: 30 Ru for the first, 14 Ru for the second.

6mer-1-858 (KKKHKR) and 6mer-1-859 (RKCMVK) are the same in Binding affinity: 27 Ru for the first, 27 Ru for the second.

Going from 6mer-1-860 (RKHWWR) to 6mer-1-861 (KRINIR), the Binding affinity falls from 22 Ru to 21 Ru.

Compared with 6mer-1-862 (KKHSEK), 6mer-1-863 (RRCTER) is lower in Binding affinity: 32 Ru for the first, 27 Ru for the second.

First: 6mer-1-864 (RRTWGR)
Second: 6mer-1-865 (KKMTAR)
The Binding affinity of the first is higher: 32 Ru for the first, 21 Ru for the second.

Going from 6mer-1-866 (KRCHFR) to 6mer-1-867 (KRIPMR), the Binding affinity falls from 26 Ru to 25 Ru.

Compared with 6mer-1-868 (KKHHAR), 6mer-1-869 (KRKDER) is higher in Binding affinity: 14 Ru for the first, 22 Ru for the second.

Going from 6mer-1-870 (KRMSHR) to 6mer-1-871 (KREWDR), the Binding affinity rises from 25 Ru to 30 Ru.

6mer-1-872 (KRPCHR) and 6mer-1-873 (KRIWAR) are the same in Binding affinity: 23 Ru for the first, 23 Ru for the second.

Going from 6mer-1-874 (KRANHK) to 6mer-1-875 (KKTNGR), the Binding affinity rises from 18 Ru to 33 Ru.

6mer-1-876 (RKYWAR) and 6mer-1-877 (KKPEWR) are the same in Binding affinity: 19 Ru for the first, 19 Ru for the second.

6mer-1-878 (RRKDNR) and 6mer-1-879 (RRYNNR) are the same in Binding affinity: 27 Ru for the first, 27 Ru for the second.

Going from 6mer-1-880 (KRPMDK) to 6mer-1-881 (KKHMER), the Binding affinity falls from 21 Ru to 20 Ru.

Compared with 6mer-1-882 (KKPAMR), 6mer-1-883 (KKIDDK) is lower in Binding affinity: 25 Ru for the first, 21 Ru for the second.

Going from 6mer-1-884 (KRYTKR) to 6mer-1-885 (RRKTPR), the Binding affinity falls from 26 Ru to 17 Ru.

First: 6mer-1-886 (RKFSNK)
Second: 6mer-1-887 (KRINHR)
The Binding affinity of the first is lower: 17 Ru for the first, 30 Ru for the second.

Going from 6mer-1-888 (KKTANK) to 6mer-1-889 (KRIMEK), the Binding affinity falls from 33 Ru to 25 Ru.

Compared with 6mer-1-890 (RRTSNK), 6mer-1-891 (RKMAFR) is lower in Binding affinity: 18 Ru for the first, 13 Ru for the second.

First: 6mer-1-892 (RKTEKR)
Second: 6mer-1-893 (RRIPHR)
The Binding affinity of the first is lower: 20 Ru for the first, 22 Ru for the second.

First: 6mer-1-894 (RKCWWR)
Second: 6mer-1-895 (KKDSKK)
The Binding affinity of the first is lower: 18 Ru for the first, 28 Ru for the second.

Going from 6mer-1-896 (KRDWIK) to 6mer-1-897 (RRPSIK), the Binding affinity rises from 11 Ru to 24 Ru.

6mer-1-898 (RKATKR) and 6mer-1-899 (KRMKWK) are the same in Binding affinity: 31 Ru for the first, 31 Ru for the second.

First: 6mer-1-900 (RRDTGR)
Second: 6mer-1-901 (RKPNGR)
The Binding affinity of the first is lower: 24 Ru for the first, 35 Ru for the second.

First: 6mer-1-902 (RRDKMK)
Second: 6mer-1-903 (KKHKPR)
The Binding affinity of the first is higher: 39 Ru for the first, 37 Ru for the second.

Going from 6mer-1-904 (KKDTKR) to 6mer-1-905 (RRICER), the Binding affinity rises from 31 Ru to 36 Ru.

Going from 6mer-1-906 (KKINGK) to 6mer-1-907 (RKPAWR), the Binding affinity rises from 30 Ru to 42 Ru.

Going from 6mer-1-908 (KKFMVR) to 6mer-1-909 (RKFCMR), the Binding affinity falls from 37 Ru to 33 Ru.

Going from 6mer-1-910 (KRPTIR) to 6mer-1-911 (KRCAAR), the Binding affinity falls from 42 Ru to 28 Ru.

Compared with 6mer-1-912 (KKETFR), 6mer-1-913 (KRFWWK) is lower in Binding affinity: 33 Ru for the first, 27 Ru for the second.

Going from 6mer-1-914 (RRKCVR) to 6mer-1-915 (RKDTWK), the Binding affinity falls from 39 Ru to 27 Ru.

Going from 6mer-1-916 (RRNAAK) to 6mer-1-917 (KRADDK), the Binding affinity falls from 33 Ru to 27 Ru.

First: 6mer-1-918 (RRESMR)
Second: 6mer-1-919 (RKDHIK)
The Binding affinity of the first is higher: 33 Ru for the first, 26 Ru for the second.

Compared with 6mer-1-920 (RRPAMR), 6mer-1-921 (RKFWHR) is lower in Binding affinity: 40 Ru for the first, 36 Ru for the second.

Compared with 6mer-1-922 (RRDWGR), 6mer-1-923 (RRASDR) is higher in Binding affinity: 34 Ru for the first, 43 Ru for the second.

First: 6mer-1-924 (RKFNWR)
Second: 6mer-1-925 (KKAMHR)
The Binding affinity of the first is lower: 29 Ru for the first, 42 Ru for the second.

Compared with 6mer-1-926 (KRESDR), 6mer-1-927 (KRESHR) is lower in Binding affinity: 40 Ru for the first, 37 Ru for the second.

Compared with 6mer-1-928 (KRYCPK), 6mer-1-929 (RRCDHK) is lower in Binding affinity: 30 Ru for the first, 25 Ru for the second.
